Results reported in patent US20120164129.

Experiments:
Fibrinogen = Fibrinogen (UniProt P02671)
[1] = target: Ecarin-activatable E-WE Prethrombin-2 (W215A/E217A/N282D/P283G)

Chain of UniProt P02671 (P02671 20-629, chain 1 of 3): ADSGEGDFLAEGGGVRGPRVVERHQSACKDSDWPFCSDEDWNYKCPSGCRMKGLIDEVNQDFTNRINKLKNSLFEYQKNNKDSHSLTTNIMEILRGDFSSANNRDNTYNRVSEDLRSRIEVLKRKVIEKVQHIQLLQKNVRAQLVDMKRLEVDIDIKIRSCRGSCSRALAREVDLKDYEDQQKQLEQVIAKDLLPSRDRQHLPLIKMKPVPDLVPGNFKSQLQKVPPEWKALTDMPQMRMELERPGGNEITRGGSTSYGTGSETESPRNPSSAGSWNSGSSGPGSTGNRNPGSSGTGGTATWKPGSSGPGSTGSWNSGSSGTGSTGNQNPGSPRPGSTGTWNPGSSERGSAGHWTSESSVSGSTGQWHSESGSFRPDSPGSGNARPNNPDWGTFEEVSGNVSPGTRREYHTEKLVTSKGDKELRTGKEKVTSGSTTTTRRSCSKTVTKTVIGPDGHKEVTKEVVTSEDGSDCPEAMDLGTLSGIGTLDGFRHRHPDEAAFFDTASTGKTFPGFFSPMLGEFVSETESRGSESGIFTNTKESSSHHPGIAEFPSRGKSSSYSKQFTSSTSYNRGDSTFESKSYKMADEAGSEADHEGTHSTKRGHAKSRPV
Chain of UniProt P02671 (chain, as listed by the source, chain 2 of 3): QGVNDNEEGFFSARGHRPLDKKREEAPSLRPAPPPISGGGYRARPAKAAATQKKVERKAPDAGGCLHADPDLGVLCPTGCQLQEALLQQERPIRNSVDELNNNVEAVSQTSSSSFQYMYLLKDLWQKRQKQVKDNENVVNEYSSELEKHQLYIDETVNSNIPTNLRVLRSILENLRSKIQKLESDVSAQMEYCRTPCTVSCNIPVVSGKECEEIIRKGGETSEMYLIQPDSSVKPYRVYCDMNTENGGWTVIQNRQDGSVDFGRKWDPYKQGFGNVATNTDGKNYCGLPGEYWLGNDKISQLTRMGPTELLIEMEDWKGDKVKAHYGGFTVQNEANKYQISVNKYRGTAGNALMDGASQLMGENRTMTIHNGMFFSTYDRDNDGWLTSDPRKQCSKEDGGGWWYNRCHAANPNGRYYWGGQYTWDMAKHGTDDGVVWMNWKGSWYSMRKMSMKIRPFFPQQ
Chain of UniProt P02671 (chain, as listed by the source, chain 3 of 3): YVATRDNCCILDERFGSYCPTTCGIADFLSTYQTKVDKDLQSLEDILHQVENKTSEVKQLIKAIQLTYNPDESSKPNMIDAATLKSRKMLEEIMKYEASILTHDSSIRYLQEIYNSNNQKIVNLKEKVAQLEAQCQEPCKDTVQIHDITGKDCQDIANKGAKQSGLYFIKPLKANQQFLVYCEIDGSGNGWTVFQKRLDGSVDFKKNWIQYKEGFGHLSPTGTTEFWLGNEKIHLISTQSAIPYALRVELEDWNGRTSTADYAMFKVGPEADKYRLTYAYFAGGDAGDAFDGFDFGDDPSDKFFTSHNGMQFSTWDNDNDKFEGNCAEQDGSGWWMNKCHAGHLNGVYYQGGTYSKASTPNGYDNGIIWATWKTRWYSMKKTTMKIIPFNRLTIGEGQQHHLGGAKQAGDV

Molecule: E. coli-derived recombinant E-WE thrombin (W215A/E217A), prepared from E-WE prethrombin-2 expressed in E. coli
- specificity toward fibrinogen (Fibrinogen): consistently shows lower specificity toward fibrinogen compared to the BHK-expressed construct

Molecule: WE thrombin (W215A/E217A) prepared from WE prethrombin-1 expressed in BHK cells
- activity toward fibrinogen (Fibrinogen): BHK produces a construct with significantly higher activity toward FPR and fibrinogen

B1: Echis carinatus snake venom prothrombin activator (ecarin) (protein)
chain: VPPHERKFEKKFIELVVVVDHSMVTKYNNDSTAIRTWIYEMLNTVNEIYLPFNIRVALVGLEFWCNGDLINVTSTADDTLHSFGEWRASDLLNRKRHDHAQLLTNVTLDHSTLGITFVYGMCKSDRSVELILDYSNITFNMAYIIAHEMGHSLGMLHDTKFCTCGAKPCIMFGKESIPPPKEFSSCSYDQYNKYLLKYNPKCILDPPLRKDIASPAVCGNEIWEEGEECDCGSPADCRNPCCDAATCKLKPGAECGNGECCDKCKIRKAGTECRPARDDCDVAEHCTGQSAECPRNEFQRNGQPCLNNSGYCYNGDCPIMLNQCIALFSPSATVAQDSCFQRNLQGSYYGYCTKEIGYYGKRFPCAPQDVKCGRLYCLDNSFKKNMRCKNDYSYADENKGIVEPGTKCEDGKVCINRKCVDVNTAY
- proteolytic cleavage at the engineered ecarin site [1]: Cleavage also occurred at the engineered ecarin site that had been introduced preceding the A chain
- proteolytic cleavage between the A and B chains [1]: The expected cleavage took place between the A and B chains to form an A chain-extended E-WE thrombin
